In publication doi:10.1101/351726:

Tests used:
[1] = biological target: full-length MyD88 fused to GFP at the N-terminus (human) (UniProt Q99836); experiment: photon counting histogram
[2] = biological target: full-length MyD88 fused to GFP at the N-terminus (human) (UniProt Q99836); experiment: single-molecule fluorescence brightness analysis

stoichiometry N [1]: > 100 proteins
Kd [2]: 120 nM
stoichiometry N [2]: > 80 GFP
Substance: full-length MyD88 fused to GFP at the N-terminus (from UniProt Q99836 1-296) (natural protein)
